What was measured:
[1] = biological target: biotinylated human SIRPα allele 2 domain 1 (a2d1) (human) (UniProt P78324); assay: SPR, Biacore T100, biotinylated SIRPα on SA chip, 25 C, 1:1 Langmuir model
[2] = biological target: biotinylated human SIRPα allele 1 domain 1 (a1d1) (human) (UniProt P78324); assay: as above
Chain of biotinylated human SIRPα allele 1 domain 1 (a1d1) (human) (P78324 other isoform, or with tags, fused parts or gaps): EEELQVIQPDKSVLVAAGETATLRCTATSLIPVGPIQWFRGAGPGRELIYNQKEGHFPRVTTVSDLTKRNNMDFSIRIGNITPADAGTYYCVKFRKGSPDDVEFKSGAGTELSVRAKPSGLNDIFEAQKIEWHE

Chain of biotinylated human SIRPα allele 2 domain 1 (a2d1) (human) (P78324 other isoform, or with tags, fused parts or gaps): as above

B1: high affinity CD47 variant N363 C15G (designed binder)
chain: WQLPLLFNKTKSVEFTFGNDTVVIPCFVTNMEAQNTTEVYVKWKFKGRDIYTFDGDKNKSTVPTDFSSAKIEVSQLLKGDASLKMDKSDAVSHTGNYTCEVTELTREGETIIELKYRVVSHHHHHHHH
B1 showed a Kd [1] of 1.1 nM and a Kd [2] of 0.296 nM.
